Assay results: US20100004432, “APTAMER AGAINST MIDKINE AND USE THEREOF” (RIBOMIC INC., published 2010)

T1: midkine (full-length) (Homo sapiens, UniProt P21741 P21741:23-143)
T1 sequence: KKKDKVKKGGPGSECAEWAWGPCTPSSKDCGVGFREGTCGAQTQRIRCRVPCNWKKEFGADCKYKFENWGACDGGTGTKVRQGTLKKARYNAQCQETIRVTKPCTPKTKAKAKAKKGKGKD

B1: SEQ ID NO:20-5 (ssRNA)
RNA: GGGAGAGGAACGACGAGGAGUAGCCGGAAAGAAGGCGGCGUC
modifications: 2'-F pyrimidines; 20-1 pattern (2'-OMe 5' single strand) plus 2'-OMe A in bulge: ga(M)gga(M)gu(F)a(M)g
B2: SEQ ID NO:20-13 (ssRNA)
RNA: GGGAGAGGAACGACGAGGAGUAGCCGGAAAGAAGGCGGCGUC
modifications: 2'-F pyrimidines; 20-5 pattern plus 2'-OMe: c(F)g(M)a(M)c(F), gga(M)aa(M)gaag(M)g, 3' g(M)u(F)c(F)
B3: SEQ ID NO:41 (ssRNA)
RNA: GGGAAGGAGAAGAGGAAGUGCACAGGGGUUGGUGUCGGGUGCACAGUAUAAG
modifications: 2'-F pyrimidines
B4: SEQ ID NO:42 (ssRNA)
RNA: GGGAGAGGAGAGAGGAAGUGCACAGGGGUUGGUGUCGGGUGCACAGUAUAAG
modifications: 2'-F pyrimidines
B5: SEQ ID NO:31 (ssRNA)
RNA: GGGAGAGGAGAAGAGGAAGUGUGCACAGGGGUUGGUGUCGGGUGCAUACAGUAUAAGAUAGAGGACA
modifications: 2'-F pyrimidines
B6: SEQ ID NO:35 (ssRNA)
RNA: GGGAGAGGAGAAGAGGAAGUGUGCACAGGGGUUGGUGUCGGGUGCAUACAG
modifications: 2'-F pyrimidines
B7: SEQ ID NO:36 (ssRNA)
RNA: GGGAGAGGAGAAGAGGAAGUGCACAGGGGUUGGUGUCGGGUGCACAGUAUAAG
modifications: 2'-F pyrimidines
B8: SEQ ID NO:36-1 (ssRNA)
RNA: GGGAGAGGAGAAGAGGAAGUGCACAGGGGUUGGUGUCGGGUGCACAGUAUAAG
modifications: 2'-F pyrimidines; 2'-OMe on all of 5' single strand (nt 1-18)
B9: SEQ ID NO:43 (ssRNA)
RNA: GGGAGAGGAGAAGAGGAGUGCACAGGGGUUGGUGUCGGGUGCACAGUAUAAG
modifications: 2'-F pyrimidines

Experiments:
Settings in all cases: tags: expressed in yeast
midkine (full-length) [1] = biological target: T1, midkine (full-length); assay: cell_activity; UMR106 migration inhibition, 500 nM RNA
Method: (§1) Chem. 276 (19), 15868-15875, 2001). […] 30 μL of 1.5 μM midkine was applied to the outer surface of the membrane of Chemotaxicell (membrane pore diameter 8 μm, manufactured by Kurabo) to immobilize the midkine to the outer surface of the membrane. The midkine-immobilized Chemotaxicell was placed on a 24-well culture plate containing 500 μL of a medium (supplemented with 0.3% bovine serum albumin, Dulbecco's Modified Eagle's medium) supplemented with each RNA aptamer added thereto at 100 nM. 200 μL of UMR106 cells were placed in the inner layer of the Chemotaxicell chamber at a density of 1×10⁶ cells/mL, and cultured at 37° C. for 4 hours. The cells remaining in the inner layer of the Chemotaxicell chamber were removed, and the cells that had infiltrated and adhered to the midkine-applied surface were fixed with methanol. The Chemotaxicell chamber was immersed in a 1% aqueous solution of Crystal Violet for 30 minutes to stain the cells. After the Chemotaxicell chamber was washed with distilled water and dried, the pigment was extracted with a mixed solution of 200 μL of 1% SDS and 1% triton X100. 150 μL of the extract was transferred to a 96-well microplate, and its absorbance at 590 nm was determined.
(§2) The aptamer shown by SEQ ID NO:4 is 77 nucleotides long, having the 2′ position of the ribose of the pyrimidine nucleotide thereof fluoro-substituted. To enable the chemical synthesis, to reduce the toxicity, and to improve the stability in the blood, miniaturization and stabilization of this aptamer were performed. The operations of miniaturization and stabilization were performed on the basis of the secondary structure estimated by the MFOLD program, and the activity was evaluated by a cell migration inhibition experiment. In the cell migration inhibition experiment, the RNA concentration was 100 nM or 500 nM. Since some errors occur in experimental results depending on cell condition, a previously assayed sample was included as a positive control in each measurement.

midkine (full-length) [2] = biological target: T1, midkine (full-length); assay: cell_activity; 100 nM RNA
Method: 30 μL of 1.5 μM midkine was applied to the outer surface of the membrane of Chemotaxicell (membrane pore diameter 8 μm, manufactured by Kurabo) to immobilize the midkine to the outer surface of the membrane. The midkine-immobilized Chemotaxicell was placed on a 24-well culture plate containing 500 μL of a medium (supplemented with 0.3% bovine serum albumin, Dulbecco's Modified Eagle's medium) supplemented with each RNA aptamer added thereto at 100 nM. 200 μL of UMR106 cells were placed in the inner layer of the Chemotaxicell chamber at a density of 1×10⁶ cells/mL, and cultured at 37° C. for 4 hours. The cells remaining in the inner layer of the Chemotaxicell chamber were removed, and the cells that had infiltrated and adhered to the midkine-applied surface were fixed with methanol. The Chemotaxicell chamber was immersed in a 1% aqueous solution of Crystal Violet for 30 minutes to stain the cells. After the Chemotaxicell chamber was washed with distilled water and dried, the pigment was extracted with a mixed solution of 200 μL of 1% SDS and 1% triton X100. 150 μL of the extract was transferred to a 96-well microplate, and its absorbance at 590 nm was determined.
as §2, with “NO:5” for “NO:4”, “2′-position” for “2′ position”, “nucleotide” for “nucleotide thereof”, “The RNA concentration in” for “In”, “experiment” for “experiment, the RNA concentration”

midkine (full-length) [3] = biological target: T1, midkine (full-length); assay: cell_activity; 500 nM RNA
Method: as §1, §2

| Binder | activity (midkine (full-length) [2]) | activity (midkine (full-length) [3]) | also measured |
| --- | --- | --- | --- |
| B1 |  |  | activity (midkine (full-length) [1]): 88 % of SEQ ID NO:4 |
| GGGAGAGGAACGACGAGGAGUAGCCGGAAAGAAGGCGGCGUC (ssRNA, 2'-F pyrimidines; 20-1 pattern plus 2'-OMe G in bulge: gag(M)g(M)ag(M)u(F)ag) [SEQ ID NO:20-6] |  |  | activity (midkine (full-length) [1]): 69 % of SEQ ID NO:4 |
| GGGAGAGGAACGACGAGGAGUAGCCGGAAAGAAGGCGGCGUC (ssRNA, 2'-F pyrimidines; 2'-OMe G in loop: c(F)c(F)g(M)g(M)aaag(M)aagg) [SEQ ID NO:20-4] |  |  | activity (midkine (full-length) [1]): 60 % of SEQ ID NO:4 |
| B2 |  |  | activity (midkine (full-length) [1]): 89 % of SEQ ID NO:4 |
| B3 | 97 % of SEQ 5 inhibition |  |  |
| B4 | 110 % of SEQ 5 inhibition |  |  |
| B5 | 94 % of SEQ 5 inhibition |  |  |
| B6 | 90 % of SEQ 5 inhibition |  |  |
| GGCGAGGAGUAGCCGGAAAGAAGGCGGCGCC (ssRNA, 2'-F pyrimidines) [SEQ ID NO:28] |  | 71 % of SEQ 4 inhibition |  |
| GACGAGGAGUAGCCGGAAAGAAGGCGGCGUC (ssRNA, 2'-F pyrimidines) [SEQ ID NO:29] |  | 74 % of SEQ 4 inhibition |  |
| B7 | 91 % of SEQ 5 inhibition |  |  |
| B8 | 60 % of SEQ 5 inhibition |  |  |
| GGGAGAGGAGAAGAGGAAGGCACAGGGGUUGGUGUCGGGUGCCAG (ssRNA, 2'-F pyrimidines) [SEQ ID NO:39] | 52 % of SEQ 5 inhibition |  |  |
| GGGACGAGGAGUAGCCGGAAAGAAGGCGGCGUC (ssRNA, 2'-F pyrimidines) [SEQ ID NO:22] |  | 70 % of SEQ 4 inhibition |  |
| GGGAGAGGAACGACGAGGAGUAGCCGAAAGGCGGCGUC (ssRNA, 2'-F pyrimidines) [SEQ ID NO:23] |  | 66 % of SEQ 4 inhibition |  |
| GGGAGAGGAACGACGAGGAGUAGCCUUCGGGCGGCGUC (ssRNA, 2'-F pyrimidines) [SEQ ID NO:24] |  | 65 % of SEQ 4 inhibition |  |
| GGGAGAGGAACGACGAGAACAGCCGGAAAGAAGGCGGCGUC (ssRNA, 2'-F pyrimidines) [SEQ ID NO:25] |  | 81 % of SEQ 4 inhibition |  |
| GGGAGAGGAACGACGAGGGUAGCCGGAAAGAAGGCGGCGUC (ssRNA, 2'-F pyrimidines) [SEQ ID NO:27] |  | 78 % of SEQ 4 inhibition |  |
| GGGAGAGGAACGACGAGAGUAGCCGGAAAGAAGGCGGCGUC (ssRNA, 2'-F pyrimidines) [SEQ ID NO:26] |  | 18 % of SEQ 4 inhibition |  |
| B9 | 42 % of SEQ 5 inhibition |  |  |
